From the supplement of paper PMC9170038
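Note: bound reporter read as fluorescence of individual clusters on recovered sequencing chips by microscopy, with normalized cluster intensities fitted with a binding model.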

What follows are sequences tested on K4 kissing-loop RNA reporter (assay: apparent KD of K4 kissing-loop reporter; higher = weaker reporter binding). Conditions: Eterna round: R107; input ligand: arginine 13.2 mM.
Description: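 RNA-MaP round R107: designed RNA switches with theophylline, tryptophan, arginine or FMN aptamers are transcribed on-chip within common flanks. They are titrated with a labelled K4 kissing-loop RNA reporter in RNA-MaP buffer (100 mM Tris pH 7.5, 80 mM KCl, 4 mM MgCl2), without ligand or with the indicated ligand. Median apparent KD per design.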
With “AACGUUUUGUGAAGGAGCGCGAUAAGCAGUGAUGUUGCUUACUUACAAUUUAUAUUUUACACGCAGGUAGGUCGCACAAUACGUA [JR_SSArginiB_Sub017]” the “apparent KD of K4 kissing-loop reporter” value was 160 nM.
In the case of “GUUGUAUACUGAAGGAGCGAGUAGUGGAAACAUAAACUCAUUGCGAGUGAUGUUCGCAGUACUCAGGUAGGUCGCAGUAAUCGUA [Exclusion Arginine B Gf 10]”, the “apparent KD of K4 kissing-loop reporter” value is reported as 315 nM.
With “AAAUUUUCAAGUGAUACCAGACAUUUUUAUUUCUUUAUUUAUGCUAAGUGAUGUUUAGCAGUCCCUUGGCAGCACUAUUUAAUUA [JR_Nu_SSTheophyB_Sub030]” the “apparent KD of K4 kissing-loop reporter” value was 174 nM.
In the case of “CCAUUCAUUUACGAUACCAGUCUAAUAUAUUUAAUCAAAACCCUCGCCGAGUGAUGUUCGGACCCUUGGCAGCGUCUGCGAGAGG [oookmullin]”, the “apparent KD of K4 kissing-loop reporter” value is reported as 464 nM.
“CUGACUAAAUAGUCAGUGAUGUUGACUGGACGAGGACCGGUACGGCCGCCACUCGAGAGUGGUGUAAUAUAUGUCAUAUAGUCAA [Tryp A SS t3]” was tested, and the “apparent KD of K4 kissing-loop reporter” value was 258 nM.
“AAGGUCACUACUACAGUGAUGUUGUGGGAGCAGGAUAUGCAGAAAUGCAGAAGGGCUCGCUCCAAGUGACCGAAUGAAACAUUCA [Omei KL FMN A SS A v1]” was tested, and the “apparent KD of K4 kissing-loop reporter” value was 876 nM.
In the case of “AAAAUAAACCAGUGAUGUUGGUGUCUAGAUACCAGCGACAAAAGUCGCCCUUGGCAGCUACGGACGUACAAAAUAAGUACGUCCU [MatMod 9 - Jieux - Same State - Theophylline A]”, the “apparent KD of K4 kissing-loop reporter” value is reported as 353 nM.
With “AAGUCAUAGGCAGGAUAUGCUUAGUAUUAAGGCCAUAUAUACGUAUAGAGUGAUGUUUUGUACCAGGCAGAAGGGCUACAUCAGU [FMN B Excl V6 (+A)]” the “apparent KD of K4 kissing-loop reporter” value was 483 nM.
“UGUCAUUGGUCUGAUACCAGGUUGAUCGGUAAACGAUCUCCUGGAGUGAUGUUCCAAAAUAUCCCUUGGCAGCAGACCGAUGACU [TheoBS 6 #SwitchBubble #StaticStem]” was tested, and the “apparent KD of K4 kissing-loop reporter” value was 320 nM.
For “UGACUGGACUGAAGGAGCGCUGAAGGAGCGUAAGCAGUGAUGUUGCUUACAGGUAGGUCGCAGCAGGUAGGUCGCAGUCUAGUCU”, the “apparent KD of K4 kissing-loop reporter” value was 78.7 nM.
“AGAACUGUCUGAGAUACCAGCCAGGAAGUGAUGUUUCCAGCUCCACGAAAGUGGAGCCAUGGCCCUUGGCAGCUCAGACAGUUCA [Omei KL Theo B SS A v5]” was tested, and the “apparent KD of K4 kissing-loop reporter” value was 141 nM.
With “GCCAGUGCACGAAGGAGCGCCGUGACAGGUUACUGCCUUGGGCAGUGAUGUUGCUCAAUCUGGCAGGUAGGUCGCGUGCACUGGC” the “apparent KD of K4 kissing-loop reporter” value was 147 nM.
In the case of “CCGAAGAACCAGUGAUGUUGGUUGACUAGACAGGAUAUGAGCAACAUCAGAAGGGUCUGGCUUCGGGAGUGGGUUGCGCUGACCU [Onbizaes]”, the “apparent KD of K4 kissing-loop reporter” value is reported as 259 nM.
“GGAUAGGACGGAGGAUAUGGGCUAGGCAAGAAUAACUUGUCUAGCAAAUCCAUGAGGAGUGAUGUUCCAGAAGGUUGUCCUAUCG [FmnBX 1 G10+U75]” was tested, and the “apparent KD of K4 kissing-loop reporter” value was 94.7 nM.
With “GCCGUACGCAUGGAUACCAGCAAUAUGCUACGUUGUAGUAGUAUAACCAGUGAUGUUGGAUGCCCUUGGCAGCCAUGCGUACGGC” the “apparent KD of K4 kissing-loop reporter” value was 673 nM.
In the case of “GCCGUACGCAUGGAUACCAGCCGACAUGAUAUUUAGCUGGUGUCGUAGUGAUGUUACGAAGGCCCUUGGCAGCCAUGCGUACGGC”, the “apparent KD of K4 kissing-loop reporter” value is reported as 72.7 nM.
With “UAAGAGGACCACUGCGAGAGUCCUCGAAUACGAGGACCGGUACGGCCGCCACUCGAUAAUUUGUAGUGAUGUUGCAAGUAAGAAU [BrourdMod 7 - Jieux - Same State Tryptophan A]” the “apparent KD of K4 kissing-loop reporter” value was 64.5 nM.
“GGUGCUGUCUGUGCCGCCCUCCUCGUCCCUCGAGGACCGGUACGGCCGCCACUCGAGUGAUGUUCGGGUAGCCAUCCCUGCCAGC [BDazzled - #20 Exc. Tryptophan A]” was tested, and the “apparent KD of K4 kissing-loop reporter” value was 328 nM.
In the case of “GCAGGCGUAAAAGGAUAUCAGGCUCUCUAGACACGAGUGAUGUUUGUGUAGGUAACGUAAUAGGCAUGAGAAGGUUUCACUUAAA [theeternabot_sameState_KL_FMN_B_49]”, the “apparent KD of K4 kissing-loop reporter” value is reported as 430 nM.
“UUUGGUUUCUCGGCCGCCACUCGUUGGUUAUGGGCUUCAGGGAUAUAGUGAUGUUAUGUAUAGAAGAGGACCGGGAGAAGGUUUU [ExTryptoB.Du]” was tested, and the “apparent KD of K4 kissing-loop reporter” value was 368 nM.
In the case of “GGGUGAGCGCGAAGGAGCGCCCUGACAGGUUGCUGCCGUGGGCAGUGAUGUUGCUCAGUCCGGCAGGUAGGUCGCGUGCUCACCC”, the “apparent KD of K4 kissing-loop reporter” value is reported as 163 nM.
“UGAUCUCGGCAGUGAUGUUGCAUAUGAGAAGGAGCGCACGAAAGUGCAGGUAGGUCGCUCAGCCAAAGAAAAUAAAACGAGAUCU [#SwitchBubble #K4Early]” was tested, and the “apparent KD of K4 kissing-loop reporter” value was 121 nM.
In the case of “AUGGGUCCACGAAGGAGCGCCGUGCAGUGAUGUUGCAGUUAGAUCCAGUGAUGUUUGGGCCGGCAGGUAGGUCGCGUGGAUUUAU [Exclusion Arginine B GF 22]”, the “apparent KD of K4 kissing-loop reporter” value is reported as 199 nM.
For “UGUCAUUGGUCGGCCGCCACUAGGACCGGGUAUAACCUAGUGAUGUUAGUAAGUACGGCCGCCACUAGGACCGGGACCGAUGACU [KL-SSTryp-B19 #DoubleAptamer]”, the “apparent KD of K4 kissing-loop reporter” value was 369 nM.

Same assay, conditions: Eterna round: R107; input ligand: none
With “AAGCAUUCUUCGGAAUGCAGACCCGCUGAGGAGGAUAUGACGAAAGUCAGAAGGUUUCAGUGAUGUUGAGGCCUCCUCAAUGGUC [whbob_Ex_FMNA__2th182]” the “apparent KD of K4 kissing-loop reporter” value was 293 nM.
For “CCAAUCUGUUACGAUACCAGUCAAAGAUAUUUUAUCAAUGCCCUCACCGAGUGAUGUUCGGACCCUUGGCAGCGUCUGGGAUAGG [ddfcmullin]”, the “apparent KD of K4 kissing-loop reporter” value was 186 nM.
With “CCUUCUCUUGAUAGUGAUGUUAUCGAGGACAAGGAUAUCAUCUCAAUGAGAAGGUGUCCUUGAUAACAUGGAGGUCUGAAACAGA [Omei KL FMN A Exc C v9]” the “apparent KD of K4 kissing-loop reporter” value was 439 nM.
“UAUUAAUUGUCAGGAUAUCGUAAACGAGUGAUGUUCGUAUAUCGACGAUAGUCGAUUCUAUCUAAACGAGAAGGGACAUUAUUUA [JR_SSFMNB_Sub008]” was tested, and the “apparent KD of K4 kissing-loop reporter” value was 664 nM.
For “AUUUUUUACAGAAGGAGCGUGUUUUAAUAAUCAUGGUGCUUAGCGAGUGAUGUUCGCUUUACACAGGUAGGUCGCUGUUUAUUUA [JR_Nu_ExcArginiB_Sub030]”, the “apparent KD of K4 kissing-loop reporter” value was 127 nM.
For “GAUUUAGAGGCGGCCGCCACUAGUGAUGUUAGUGAUGUUUGAUACUGAAUAUAUCUGCGUUUAGAUAGGACCGGGCCAGAUGGUG [ddcmullin]”, the “apparent KD of K4 kissing-loop reporter” value was 193 nM.
With “GAUCUGAACGAAAGUUCGGAUCAGUCCGAUACCAGUAUGGAUUCAUACCCUUGGCAGCGGUUAUCUGCUAUGGAGUGAUGUUCCA [Theophylline A K4 11]” the “apparent KD of K4 kissing-loop reporter” value was 483 nM.
For “UUGAGACGUCAAGGAUAUUCCGCGGAAGGGCGAGCGACCCAAGUGUGAGUGAUGUUCAGCAAGCCGGAAGAAGGUGAAUUUCACC [theeternabot_sameState_KL_FMN_B_26]”, the “apparent KD of K4 kissing-loop reporter” value was 958 nM.
“AACGUUUUGUGAAGGAGCGCGAUAAGCAGUGAUGUUGCUUACUUACAAUUUAUAUUUUACACGCAGGUAGGUCGCACAAUACGUA [JR_SSArginiB_Sub017]” was tested, and the “apparent KD of K4 kissing-loop reporter” value was 190 nM.
“GUUGUAUACUGAAGGAGCGAGUAGUGGAAACAUAAACUCAUUGCGAGUGAUGUUCGCAGUACUCAGGUAGGUCGCAGUAAUCGUA [Exclusion Arginine B Gf 10]” was tested, and the “apparent KD of K4 kissing-loop reporter” value was 566 nM.
“AAAUUUUCAAGUGAUACCAGACAUUUUUAUUUCUUUAUUUAUGCUAAGUGAUGUUUAGCAGUCCCUUGGCAGCACUAUUUAAUUA [JR_Nu_SSTheophyB_Sub030]” was tested, and the “apparent KD of K4 kissing-loop reporter” value was 141 nM.
“CCAUUCAUUUACGAUACCAGUCUAAUAUAUUUAAUCAAAACCCUCGCCGAGUGAUGUUCGGACCCUUGGCAGCGUCUGCGAGAGG [oookmullin]” was tested, and the “apparent KD of K4 kissing-loop reporter” value was 598 nM.
For “CUGACUAAAUAGUCAGUGAUGUUGACUGGACGAGGACCGGUACGGCCGCCACUCGAGAGUGGUGUAAUAUAUGUCAUAUAGUCAA [Tryp A SS t3]”, the “apparent KD of K4 kissing-loop reporter” value was 436 nM.
In the case of “AAGGUCACUACUACAGUGAUGUUGUGGGAGCAGGAUAUGCAGAAAUGCAGAAGGGCUCGCUCCAAGUGACCGAAUGAAACAUUCA [Omei KL FMN A SS A v1]”, the “apparent KD of K4 kissing-loop reporter” value is reported as 839 nM.
In the case of “AAAAUAAACCAGUGAUGUUGGUGUCUAGAUACCAGCGACAAAAGUCGCCCUUGGCAGCUACGGACGUACAAAAUAAGUACGUCCU [MatMod 9 - Jieux - Same State - Theophylline A]”, the “apparent KD of K4 kissing-loop reporter” value is reported as 472 nM.
In the case of “AAGUCAUAGGCAGGAUAUGCUUAGUAUUAAGGCCAUAUAUACGUAUAGAGUGAUGUUUUGUACCAGGCAGAAGGGCUACAUCAGU [FMN B Excl V6 (+A)]”, the “apparent KD of K4 kissing-loop reporter” value is reported as 603 nM.
